Test results published in patent US20140341881A1 (DERMADIS, published 2014).
Changes are numbered by the printed parent chain.

B1: rACT6.2 (other)
chain: MRGSHHHHHHSRHPNSPLDEENLTQENQDRGTHVDLGLASANVDFAFSLYKQLVLKAPDKNVIFSPLSISTALAFLSLGAHNTTLTEILKGLKFNLTETSEAEIHQSFQHLLRTLNQSSDELQLSMGNAMFVKEQLSLLDRFTEDAKRLYGSEAFATDFQDSAAAKKLINDYVKNGTRGKITDLIKDLDSQTMMVLVNYIFFKAKWEMPFDPQDTHQSRFYLSKKKWVMVPMMSLHHLTIPYFRDEELSCTVVELKYTGNASALFILPDQDKMEEVEAMLLPETLKRWRDSLEFREIGELYLPKFSISRDYNLNDILLQLGIEEAFTSKADLSGITGARNLAVSQVVHKAVLDVFEEGTEASAATAVKITRRSIDVETRTIVRFNRPFLMIIVPTDTQNIFFMSKVTNPKQA
notes: recombinant ACT variant, RSL substrate peptide RRSID; N-terminal His tag, E. coli TG1; also called MD62; MD 62
B2: rACT8.3 (other)
chain: B1 chain with T370R, R371G, I374E, D375L
notes: recombinant ACT variant, RSL substrate peptide RGRSE; N-terminal His tag, E. coli TG1; also called MD83; MD 83
B3: AATE8 (other, human)
chain: HHHHHHEDPQGDAAQKTDTSHHDQDHPTFNKITPNLAEFAFSLYRQLAHQSNSTNIFFSPVSIATAFAMLSLGTKADTHDEILEGLNFNLTEIPEAQIHEGFQELLRTLNQPDSQLQLTTGNGLFLSEGLKLVDKFLEDVKKLYHSEAFTVNFGDTEEAKKQINDYVEKGTQGKIVDLVKELDRDTVFALVNYIFFKGKWERPFEVKDTEEEDFHVDQVTTVKVPMMKRLGMFNIQHCKKLSSWVLLMKYLGNATAIFFLPDEGKLQHLENELTHDIITKFLENEDRRSASLHLPKLSITGTYDLKSVLGQLGITKVFSNGADLSGVTEEAPLKLSKAVHKAVLTIDEKGTEAAGAMFLEALQRAIPPEVKFNKPFVFLMIEQNTKSPLFMGKVVNPTQK
notes: mature; also called rAATE8
B4: AATG9 (other, human)
chain: B3 chain with A361T, L362V, Q363D, R364Y
notes: mature; also called rAATG9

Assays:
[1] = target: T1, human plasma kallikrein (PK) (human, UniProt P03952 20-638); experiment: progress curve, pseudo-first order, fluorogenic substrate
T1 sequence (P03952 20-638 limits assumed): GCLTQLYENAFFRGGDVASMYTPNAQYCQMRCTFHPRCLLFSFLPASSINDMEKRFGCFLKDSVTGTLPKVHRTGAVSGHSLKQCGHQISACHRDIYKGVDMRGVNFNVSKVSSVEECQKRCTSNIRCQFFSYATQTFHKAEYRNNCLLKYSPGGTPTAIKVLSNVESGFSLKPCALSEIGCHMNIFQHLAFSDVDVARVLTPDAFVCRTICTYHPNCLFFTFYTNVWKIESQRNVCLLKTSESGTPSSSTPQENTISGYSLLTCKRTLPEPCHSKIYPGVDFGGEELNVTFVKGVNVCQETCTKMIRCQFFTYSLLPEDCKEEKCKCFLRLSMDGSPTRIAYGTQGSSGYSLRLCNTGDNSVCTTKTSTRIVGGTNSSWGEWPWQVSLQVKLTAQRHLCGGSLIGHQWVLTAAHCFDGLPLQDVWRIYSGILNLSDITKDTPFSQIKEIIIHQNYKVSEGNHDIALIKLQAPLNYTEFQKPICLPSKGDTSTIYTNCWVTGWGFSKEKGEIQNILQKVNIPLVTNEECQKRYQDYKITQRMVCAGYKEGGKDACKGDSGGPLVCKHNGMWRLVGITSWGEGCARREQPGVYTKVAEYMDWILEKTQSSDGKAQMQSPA
Method: (§1) Under these conditions, a fixed amount of enzyme (2 nM) was mixed with different concentrations of inhibitor (0-800 nM) and an excess of substrate (10 μM). Each reaction was made in reaction buffer (50 mM Tris pH 7.5, 150 mM NaCl, 0,05% Triton X-100, 0.01% BSA) at 25° C. for 45 min and the rate of product formation was measured using a FLₓ800 fluorescence 96-well microplate reader (Biotek, USA). In this model, inhibition is considered to be irreversible over the course of reaction and the progress of enzyme activity is expressed by product formation (P), beginning at a rate (vz) and is inhibited over time (t) at a first-order rate (kobs), rate constant that is dependent only on inhibitor concentration.

human kallikrein 2 (hK2) [2] = target: T2, human kallikrein 2 (hK2) (human, UniProt P20151 25-261); experiment: as above
T2 construct: two preparations treated as one molecule; also called kallikrein hK2
Method: as §1

[3] = target: T1, human plasma kallikrein (PK); experiment: residual enzyme activity against [I]o/[E]o, fluorogenic substrate
Method: (§2) The stoichiometry of inhibition (SI) values were determined for the inhibition of rACTWT and its variants with hK2 and different other enzymes. An initial test was made with a molar excess of rACT (100 fold) over hK2, PSA, hK1, chymotrypsin (Chtr), plasma kallikrein (PK), urokinase (uPA) and human neutrophile elastase (HNE) enzymes. The reaction was carried out for 30 min at 25° C. (90 min at 37° C. for PSA) in reaction buffer (50 mM Tris pH 7.5, 150 mM NaCl, 0,05% Triton X-100, 0.01% BSA) and residual enzyme activity was measured by adding fluorescent substrates (Z-Phe-Arg-AMC for hK1, hK2 and PK, Suc-Ala-Ala-Pro-Phe-AMC for Chtr, Z-Gly-Gly-Arg-AMC for uPA, MeOSuc-Ala-Ala-Pro-Val-AMC for HNE, and CFP-TFRSA-YFP (TFRSA SEQ ID NO:137) for PSA). Activity of enzyme in presence of inhibitors was compared to uninhibited reaction. For reactions where an inhibition was observed, SI was determined by incubating different concentrations of recombinant serpins. Using linear regression analysis of fractional activity (velocity of inhibited enzyme reaction/velocity of uninhibited enzyme reaction) versus the molar ratio of the inhibitor to enzyme ([Iₒ]/[Eₒ]), the stoichiometry of inhibition, corresponding to the abscissa intercept, was obtained.

human kallikrein 2 (hK2) [4] = target: T2, human kallikrein 2 (hK2); experiment: as above
Method: as §2

human kallikrein hK1 = human kallikrein hK1 (human, UniProt P06870 25-262); experiment: cell-based or functional assay
[5] = target: T3, urokinase plasminogen activator (uPA) (UniProt P00749 21-431, limits assumed); experiment: cell-based or functional assay
[6] = target: T1, human plasma kallikrein (PK); experiment: cell-based or functional assay
human kallikrein 2 (hK2) [7] = target: T2, human kallikrein 2 (hK2); experiment: cell-based or functional assay
[8] = target: T4, prostate specific antigen (PSA, hK3) (human, UniProt P07288 25-261); experiment: cell-based or functional assay
[9] = target: T5, human kallikrein 14 (hK14) (human, UniProt Q9P0G3 25-251, limits assumed); experiment: residual hK14 activity against [I0]/[E0]
T5 construct: range counted on GenBank AAK48524 (printed), which may differ from the UniProt numbering; also called recombinant hK14
T5 sequence (looked up): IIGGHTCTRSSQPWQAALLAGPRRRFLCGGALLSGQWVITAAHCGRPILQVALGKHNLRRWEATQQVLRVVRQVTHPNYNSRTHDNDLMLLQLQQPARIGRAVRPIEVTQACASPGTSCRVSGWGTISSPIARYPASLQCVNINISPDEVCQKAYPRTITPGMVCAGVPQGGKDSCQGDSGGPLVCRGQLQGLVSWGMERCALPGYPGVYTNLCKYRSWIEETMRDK
Method: (§3) SI values of rAAT, rACT, and their variants were determined with hK14 incubating the protease with varying concentrations of inhibitor. After an incubation of 4 hours at 37° C. in reaction buffer (50 mM Tris, pH 7.5, 150 mM NaCl, 0.05% Triton X-100, 0.01% BSA), the residual activity was detected by the addition of fluorescent substrate (Boc-Val-Pro-Arg-AMC). Fluorescence was measured with excitation at 340 nm (±15) and emission at 485 nm (±10) in black 96 well plates using a microplate fluorescence reader FLₓ800 (Bio-Tek Instruments, Inc.). The SI value corresponds to the abscissa intercept of the linear regression analysis of fractional velocity (velocity of inhibited enzyme reaction (vi)/velocity of uninhibited enzyme reaction (v₀)) vs. the molar ratio of the inhibitor to enzyme ([I₀]/[E₀]).

[10] = target: T5, human kallikrein 14 (hK14); experiment: residual hK14 activity after 4 h at 37 C against [I0]/[E0]
Method: as §3

[11] = target: T5, human kallikrein 14 (hK14); experiment: cell-based or functional assay
human kallikrein 6 (hK6) = human kallikrein 6 (hK6) (human, UniProt Q92876 22-244); experiment: cell-based or functional assay
[12] = target: T6, human kallikrein 13 (hK13) (human, UniProt Q9UKR3 26-277, limits assumed); experiment: cell-based or functional assay
T6 sequence (looked up): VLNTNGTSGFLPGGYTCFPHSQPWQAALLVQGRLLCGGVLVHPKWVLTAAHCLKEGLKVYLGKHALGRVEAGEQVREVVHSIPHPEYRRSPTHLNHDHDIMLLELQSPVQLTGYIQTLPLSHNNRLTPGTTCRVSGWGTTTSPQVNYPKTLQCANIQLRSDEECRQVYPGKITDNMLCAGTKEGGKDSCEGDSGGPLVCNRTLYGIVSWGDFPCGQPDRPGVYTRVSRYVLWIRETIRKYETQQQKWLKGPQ

[13] = target: T7, human chymotrypsin (Chtr) (human, UniProt P17538 19-263); experiment: cell-based or functional assay
T7 sequence (P17538 19-263): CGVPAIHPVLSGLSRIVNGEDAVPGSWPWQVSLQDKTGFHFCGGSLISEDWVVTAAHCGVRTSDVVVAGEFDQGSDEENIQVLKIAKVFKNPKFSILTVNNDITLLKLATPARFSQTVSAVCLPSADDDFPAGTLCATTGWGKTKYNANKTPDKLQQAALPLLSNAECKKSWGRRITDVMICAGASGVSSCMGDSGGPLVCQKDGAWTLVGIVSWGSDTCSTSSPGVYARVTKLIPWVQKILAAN

[14] = target: T1, human plasma kallikrein (PK); experiment: cell-based or functional assay; remark: listed apart in the source
[15] = target: T4, prostate specific antigen (PSA, hK3); experiment: cell-based or functional assay; remark: listed apart in the source
human kallikrein 8 (hK8) = target: T8, human kallikrein 8 (hK8) (human, UniProt O60259 33-260); experiment: cell-based or functional assay
T8 sequence (looked up): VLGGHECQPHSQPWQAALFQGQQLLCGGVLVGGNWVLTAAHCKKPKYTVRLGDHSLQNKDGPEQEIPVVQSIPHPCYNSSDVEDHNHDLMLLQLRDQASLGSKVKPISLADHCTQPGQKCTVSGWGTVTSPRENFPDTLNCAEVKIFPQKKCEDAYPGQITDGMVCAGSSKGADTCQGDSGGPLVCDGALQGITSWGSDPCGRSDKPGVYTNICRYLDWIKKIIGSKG

thrombin [16] = experiment: cell-based or functional assay
human kallikrein 5 (hK5) = target: T9, human kallikrein 5 (hK5) (human, UniProt Q9Y337 67-293, limits assumed); experiment: cell-based or functional assay
T9 sequence (looked up): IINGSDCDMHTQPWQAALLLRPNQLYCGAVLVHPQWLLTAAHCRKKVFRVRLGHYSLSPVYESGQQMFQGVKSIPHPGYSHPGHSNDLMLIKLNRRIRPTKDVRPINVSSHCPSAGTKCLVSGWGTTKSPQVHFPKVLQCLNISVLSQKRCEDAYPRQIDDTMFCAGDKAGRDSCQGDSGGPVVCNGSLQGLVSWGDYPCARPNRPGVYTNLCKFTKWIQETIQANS

[17] = target: T10, human neutrophil elastase (HNE) (human, UniProt P08246 30-247, limits assumed); experiment: cell-based or functional assay
T10 sequence (looked up): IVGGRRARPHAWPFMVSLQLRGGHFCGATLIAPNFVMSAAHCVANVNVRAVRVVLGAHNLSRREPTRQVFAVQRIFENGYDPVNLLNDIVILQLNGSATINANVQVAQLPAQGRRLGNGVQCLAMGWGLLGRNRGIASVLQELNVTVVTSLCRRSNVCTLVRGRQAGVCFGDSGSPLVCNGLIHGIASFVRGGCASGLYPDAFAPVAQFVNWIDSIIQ

human kallikrein 2 (hK2) [18] = target: T2, human kallikrein 2 (hK2); experiment: cell-based or functional assay; remark: listed apart in the source
[19] = target: T5, human kallikrein 14 (hK14); experiment: cell-based or functional assay; remark: listed apart in the source
[20] = target: T3, urokinase plasminogen activator (uPA); experiment: cell-based or functional assay; remark: listed apart in the source
[21] = target: T7, human chymotrypsin (Chtr); experiment: cell-based or functional assay; remark: listed apart in the source
[22] = target: T1, human plasma kallikrein (PK); experiment: cell-based or functional assay; remark: listed apart in the source
thrombin [23] = experiment: cell-based or functional assay; remark: listed apart in the source
[24] = target: T10, human neutrophil elastase (HNE); experiment: cell-based or functional assay; remark: listed apart in the source

Binder	kon (human kallikrein 2 (hK2) [2]) [M⁻¹ s⁻¹]	SI (stoichiometry of inhibition) (human kallikrein 2 (hK2) [4])	INHIBITION % (human kallikrein hK1) [%]	INHIBITION % [5] [%]	INHIBITION % (human kallikrein 2 (hK2) [7]) [%]	SI (stoichiometry of inhibition) [9]	SI (stoichiometry of inhibition) [10]	Percentage inhibition [11] [%]	Percentage inhibition (human kallikrein 6 (hK6)) [%]	Percentage inhibition [12] [%]	Percentage inhibition [13] [%]	Percentage inhibition [14] [%]	Percentage inhibition [15] [%]	Percentage inhibition (human kallikrein 8 (hK8)) [%]	Percentage inhibition (thrombin [16]) [%]	Percentage inhibition (human kallikrein 5 (hK5)) [%]	Percentage inhibition [17] [%]	Percentage inhibition (human kallikrein 2 (hK2) [18]) [%]	% Inhibition [19] [%]	% Inhibition [20] [%]	further results
B1	6260	25	0	0	100																kon [1]: 6220 M⁻¹ s⁻¹; SI (stoichiometry of inhibition) [3]: 18; INHIBITION % [6]: 100%
B2	2440	34	0	0	100																INHIBITION % [8]: 0%
B3						7.4	7.4	100	100	30	19	100	0	36	0	100	0	19	100	0	% Inhibition [21]: 19%; % Inhibition [22]: 100%; % Inhibition (thrombin [23]): 0%; % Inhibition [24]: 0%
B4						1.2	1.2	100	0	0	100	0	0	0	0	30	0	0	100	0	% Inhibition [21]: 100%; % Inhibition [22]: 0%; % Inhibition (thrombin [23]): 0%; % Inhibition [24]: 0%
